Results on three compounds are retold here after article PMC5447021, “TNF Lectin-Like Domain Restores Epithelial Sodium Channel Function in Frameshift Mutants Associated with Pseudohypoaldosteronism Type 1B” (Frontiers in Immunology, 2017).

Among the targets are αN511Qβγ-ENaC (human) (UniProt P37088); αN232Qβγ-ENaC (human) (UniProt P37088); αR448fsβγ-ENaC (human) (UniProt P37088).
The target of another assay is T1, β-hENaC (Homo sapiens, UniProt P51168).
T1 construct: expressed in transfected cells; host or cells: HEK-293
T1 sequence (P51168 1-640): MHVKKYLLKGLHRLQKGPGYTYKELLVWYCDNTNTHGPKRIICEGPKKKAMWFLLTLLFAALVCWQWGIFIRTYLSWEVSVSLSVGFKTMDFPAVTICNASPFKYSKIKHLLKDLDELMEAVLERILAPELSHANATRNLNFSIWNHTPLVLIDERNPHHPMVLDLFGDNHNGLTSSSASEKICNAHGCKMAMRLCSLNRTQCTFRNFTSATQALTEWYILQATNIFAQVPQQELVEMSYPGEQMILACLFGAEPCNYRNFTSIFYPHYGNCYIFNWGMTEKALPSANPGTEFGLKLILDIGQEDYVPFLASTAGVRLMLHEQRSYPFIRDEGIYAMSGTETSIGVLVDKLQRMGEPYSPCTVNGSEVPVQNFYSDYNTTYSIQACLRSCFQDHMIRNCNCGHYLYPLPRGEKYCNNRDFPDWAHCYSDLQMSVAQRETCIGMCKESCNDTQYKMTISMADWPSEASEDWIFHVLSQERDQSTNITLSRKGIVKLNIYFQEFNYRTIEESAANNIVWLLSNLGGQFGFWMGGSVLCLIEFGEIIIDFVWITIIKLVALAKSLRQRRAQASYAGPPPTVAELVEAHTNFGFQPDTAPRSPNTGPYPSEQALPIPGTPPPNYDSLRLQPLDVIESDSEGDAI
Put plainly: Whole-cell patch clamp, β-hENaC alone. The assay is classed as cell-based. As to conditions: TNF, mean ± S.E., n = 5. The procedure: (§1) HEK-293 cells were transfected 1 day after cell seeding using X-tremeGENE HP DNA transfection reagent (Roche Diagnostics, Mannheim, Germany) according to the manufacturer’s protocol. A set of WT or mutant αβγ- or δβγ-hENaC, or α-, β-, γ-, or δ-hENaC alone was used, and the ratio of DNA to transfection reagent was 1:3. The expression was highest 48–72 h after transfection.
(§2) Electrophysiological experiments were performed as described in detail by Shabbir et al. ([16]). […] Currents were recorded with the patch clamp method in the whole-cell mode. The chamber contained 1 ml of the bath solution of the following composition (in mM): 145 NaCl, 2.7 KCl, 1.8 CaCl2, 2 MgCl2, 5.5 glucose, and 10 HEPES, adjusted to pH 7.4 with 1 M NaOH solution. Micropipettes were pulled from thin-walled borosilicate glass capillaries (Harvard Apparatus, Holliston, MA, USA) with a DMZ Zeitz Puller to obtain electrode resistances ranging from 2 to 5 MΩ. The pipette solution contained (in millimolars): 135 potassium methane sulfonate, 10 KCl, 6 NaCl, 1 Mg2ATP, 2 Na3ATP, 10 HEPES, and 0.5 EGTA, adjusted to pH 7.2 with 1 M KOH solution. Chemicals for pipette and bathing solutions were supplied by Sigma-Aldrich (Vienna, Austria). Electrophysiological measurements were carried out with an Axopatch 200B patch clamp amplifier (Axon Instruments, CA, USA). […]
(In patch-clamp work, channel activity is measured electrically.)

Another assay has as its target T2, α-hENaC (Homo sapiens, UniProt P37088).
T2 construct: expressed in transfected cells; host or cells: HEK-293
T2 sequence (P37088 1-669): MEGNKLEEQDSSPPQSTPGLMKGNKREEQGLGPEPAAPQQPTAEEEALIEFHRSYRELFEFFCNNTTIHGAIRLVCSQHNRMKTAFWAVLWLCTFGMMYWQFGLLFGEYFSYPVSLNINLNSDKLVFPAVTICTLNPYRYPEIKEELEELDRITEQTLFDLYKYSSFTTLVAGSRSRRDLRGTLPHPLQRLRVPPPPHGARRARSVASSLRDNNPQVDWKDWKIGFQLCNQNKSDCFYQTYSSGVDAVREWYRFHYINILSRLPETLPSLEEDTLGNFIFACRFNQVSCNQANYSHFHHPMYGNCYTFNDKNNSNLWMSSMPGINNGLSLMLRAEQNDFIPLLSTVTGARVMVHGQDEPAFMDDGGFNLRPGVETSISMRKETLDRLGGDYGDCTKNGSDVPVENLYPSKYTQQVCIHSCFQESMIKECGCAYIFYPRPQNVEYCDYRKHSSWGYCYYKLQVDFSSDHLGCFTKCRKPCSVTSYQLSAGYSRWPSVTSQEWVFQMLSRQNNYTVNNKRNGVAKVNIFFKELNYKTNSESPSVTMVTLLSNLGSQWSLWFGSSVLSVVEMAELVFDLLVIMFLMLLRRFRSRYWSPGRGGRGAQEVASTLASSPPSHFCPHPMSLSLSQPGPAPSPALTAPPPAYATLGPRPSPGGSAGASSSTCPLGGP
In words: Whole-cell patch clamp, α-hENaC alone. As to conditions: TNF, -100 mV, mean ± S.E., n = 5, p < 0.001 vs solnatide. The assay is classed as cell-based. The procedure: as §1, §2

The next assay addresses T3, δ-hENaC (Homo sapiens, UniProt P51172).
T3 construct: expressed in transfected cells; host or cells: HEK-293
T3 sequence (P51172 1-638 isoform P51172-1): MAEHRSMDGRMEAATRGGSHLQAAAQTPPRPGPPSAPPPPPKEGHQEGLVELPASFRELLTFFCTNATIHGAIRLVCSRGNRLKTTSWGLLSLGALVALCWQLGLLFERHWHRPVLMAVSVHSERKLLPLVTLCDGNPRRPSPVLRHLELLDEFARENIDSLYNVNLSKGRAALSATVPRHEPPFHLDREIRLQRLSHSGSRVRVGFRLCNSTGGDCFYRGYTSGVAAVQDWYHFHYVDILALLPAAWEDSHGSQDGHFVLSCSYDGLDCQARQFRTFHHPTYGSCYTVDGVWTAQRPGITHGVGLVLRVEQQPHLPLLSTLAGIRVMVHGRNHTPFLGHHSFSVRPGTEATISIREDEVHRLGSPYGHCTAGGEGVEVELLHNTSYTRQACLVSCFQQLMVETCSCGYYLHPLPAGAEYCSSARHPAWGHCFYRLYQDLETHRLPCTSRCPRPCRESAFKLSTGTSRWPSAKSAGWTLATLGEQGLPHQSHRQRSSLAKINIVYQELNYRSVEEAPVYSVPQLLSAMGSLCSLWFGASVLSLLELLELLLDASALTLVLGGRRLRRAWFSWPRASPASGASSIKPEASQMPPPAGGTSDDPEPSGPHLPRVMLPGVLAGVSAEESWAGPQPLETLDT
Put plainly: Whole-cell patch clamp, δ-hENaC alone. The assay is classed as cell-based. To be noted: TNF, mean ± S.E., n = 5, p < 0.001 vs solnatide. On the procedure:
as §1, §2

In a further assay the target is T4, αβγ-hENaC (Homo sapiens, UniProt P37088+P51168+P51170).
T4 construct: expressed in transfected cells; host or cells: HEK-293
T4 sequence (P37088 1-669): T2 sequence (P37088 1-669)
T4 sequence (P51168 1-640 partner): T1 sequence (P51168 1-640)
T4 sequence (P51170 1-649 partner): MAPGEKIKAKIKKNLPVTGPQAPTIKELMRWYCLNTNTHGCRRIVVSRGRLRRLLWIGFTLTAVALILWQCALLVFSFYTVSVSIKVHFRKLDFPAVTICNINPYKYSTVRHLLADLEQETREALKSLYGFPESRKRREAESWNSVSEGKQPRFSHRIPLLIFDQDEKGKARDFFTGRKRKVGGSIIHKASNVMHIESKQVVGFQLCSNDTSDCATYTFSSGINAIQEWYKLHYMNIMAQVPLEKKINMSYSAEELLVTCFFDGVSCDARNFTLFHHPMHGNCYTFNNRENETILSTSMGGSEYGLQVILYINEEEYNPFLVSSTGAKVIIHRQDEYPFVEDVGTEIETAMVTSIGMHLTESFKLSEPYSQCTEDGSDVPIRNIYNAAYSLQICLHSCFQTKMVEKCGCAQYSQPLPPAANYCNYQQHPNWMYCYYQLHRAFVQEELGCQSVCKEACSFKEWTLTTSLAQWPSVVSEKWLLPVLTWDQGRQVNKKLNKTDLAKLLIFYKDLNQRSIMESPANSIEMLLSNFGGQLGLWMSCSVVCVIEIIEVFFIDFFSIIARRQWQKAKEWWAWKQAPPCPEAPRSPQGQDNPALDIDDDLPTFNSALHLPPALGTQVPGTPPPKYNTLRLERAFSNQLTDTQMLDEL
In words: Whole-cell patch clamp, WT αβγ-hENaC. The assay is classed as cell-based. On the procedure: Point mutations of α-, β-, γ- and δ-hENaC and PHA1B frameshift mutations of α-hENaC were prepared with the QuikChange Lightning Site-Directed Mutagenesis Kit (Agilent Technologies, CA, USA). Mutagenic primers were designed individually with the Primer Design Program provided on the producer’s website or for the frameshift mutations the same base changes as reported in patients (see Table 2) were performed. Primers were ordered from Sigma-Aldrich, Vienna, Austria.
as §1
as §2, with “USA). Capacity transients were canceled, and series resistance was compensated. Whole-cell currents were filtered at 5 kHz and sampled at 10 kHz. Data acquisition and storage were processed directly to a PC equipped with pCLAMP 10.2 software (Axon Instruments, CA, USA).” for “USA).”

The target of assay [1] is β-hENaC expressed alone (human) (UniProt P51168).
Assay [2] concerns the target δ-hENaC expressed alone (human) (UniProt P51172).
Assay [3] addresses α-hENaC expressed alone (human) (UniProt P37088).
Assay [4] deals with wild-type αβγ-hENaC (amiloride-sensitive epithelial sodium channel) (human) (UniProt P37088).
Assay [5] has as its target γ-hENaC expressed alone (human) (UniProt P51170).

The term EC50 denotes the concentration giving half of the maximal effect. Low values mean an effect from little substance, high ones a need for much substance.

On to “TNF: Tumor necrosis factor (CAS Registry Number 94948-59-1, Sigma-Aldrich, Austria)”, for which the EC50 was 18.8 ± 2.9 nM in the assay with β-hENaC; 4.2 ± 1.9 nM with α-hENaC; 5 ± 0.3 nM with δ-hENaC; 6.7 ± 2.1 nM in the assay with αβγ-hENaC (TNF, amiloride-sensitive Na^+ current, αβγ-hENaC in HEK-293, whole-cell, -100 mV, 19–22°C, bath pH 7.4, cumulative addition, mean ± S.E., n = 5, p < 0.001 vs solnatide).
On to Tumor necrosis factor (TNF) (ligand), for which the maximal TNF-induced current, whole-cell patch clamp, transfected HEK-293 cells was 50.7 pA with αN511Qβγ-ENaC (human) and 84.7 pA in the assay with αN232Qβγ-ENaC (human). Moreover, the fold increase of current (TNF-induced/amiloride-sensitive current), whole-cell patch clamp, transfected HEK-293 cells in the assay with αR448fsβγ-ENaC (human) turned out to be 3.5 fold. In addition, the EC50 of TNF for activating amiloride-sensitive Na+ current, whole-cell patch clamp at -100 mV, transfected HEK-293 cells in assay [1] turned out to be 18.8 nM; in assay [2] it was 5 nM; in assay [3], 4.2 nM; in [4], 6.7 nM. The maximal TNF-induced amiloride-sensitive Na+ current, whole-cell patch clamp at -100 mV, transfected HEK-293 cells in assay [1] worked out at 18.5 pA; in assay [2] it was 27.8 pA; in assay [3], 48.1 pA; in [4], 162 pA; in [5], 8 pA.
As for `N=C(N)NC(=O)c1nc(Cl)c(N)nc1N` [amiloride, reference compound], at αβγ-hENaC (10 µM amiloride, TNF- or solnatide-induced current), the “Block of induced current by amiloride” value is recorded as “blocked by 10 µM amiloride within a few pulses”.
